± gives the half width of the 95% confidence interval.

Here are results for 36 sequences from the supplement of paper PMC12764529.

Data set [1] is described as follows: folding stability dG unfold from chymotrypsin proteolysis; higher = more stable. Summed up: (§1)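 Bayesian fitting of sequencing counts gave K50 for each design. Unfolding free energy followed by setting this against a sequence-predicted unfolded-state K50 and a shared folded-state K50, either per protease or with trypsin and chymotrypsin combined. The designs, under 80 residues and lacking cysteine, were digested in a PA-tagged cDNA display format at 11 threefold-diluted protease concentrations and without protease, and only those with AlphaFold2 dimer inter-PAE above 15 were kept.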

A short description of data set [2]: folding stability dG unfold from trypsin proteolysis; higher = more stable. An outline of the steps: as §1
Data set [3] in a line: folding stability dG unfold (combined trypsin and chymotrypsin); higher = more stable. Summed up:
as §1

As for “SAGGKYEYDPDNGYYRDEDGKMYYPMPPQIPPIEIPIPINLPNGQKLNIPVEFRTIEDALDALKKFFSAGGS [r8_440_TrROS]”, the “folding stability dG unfold” value in data set [1] turned out to be 1.13 ± 0.091 kcal/mol; in data set [2], 0.697 ± 0.033 kcal/mol; in data set [3] it was 1.01 ± 0.14 kcal/mol.
For the sequence “SAGGKYKIVEITIKVEPGQSPEEIAAEIAKKLAPPGEKVKVKVEKKDGYLRIYIINEETGEVVEEFELSAGG [r13_724_TrROS_Hall]”, the “folding stability dG unfold” value in data set [1] was determined as 1.91 ± 0.06 kcal/mol; in data set [2] it was 1.66 ± 0.051 kcal/mol; in data set [3], 1.88 ± 0.14 kcal/mol.
The like results for “SAGGLAPVYKTEDGVYLITPYNPETGELLETIPISEEDIEELSKEYGRDLTIEEIVKKLGYETEITVASAGG [r13_836_TrMRF]” were, in that order, 0.99 ± 0.03 kcal/mol, 0.786 ± 0.057 kcal/mol and 0.969 ± 0.06 kcal/mol.
For “SAGGLDPDGKIRWQPITITIEIPIPPGDEELANKIADWLRDLGIEVEIKRNPNGYIQITVEFWVLVIDSAGG [r13_702_TrROS]”, the “folding stability dG unfold” value turned out to be 5.03 ± 0.29 kcal/mol in data set [1], 3.82 ± 0.33 kcal/mol in data set [2] and 4.89 ± 0.31 kcal/mol in data set [3].
The like results for “SAGGLEILEVDPDTYTITIRFGDRPLEFTVPPDYPPTITITEDPDGSVTLTIEVPDRTETFTIPRELVESAG [r5_500_TrMRF]” were, in that order, 1.84 ± 0.09 kcal/mol, 1.18 ± 0.021 kcal/mol and 1.61 ± 0.083 kcal/mol.
For the sequence “SAGGLIIPEEYEIVEKKAEILPDGSLRYTFILRPKSGELLLVEIRYPPDGSIEIEARRLTPEELKKALSAGG [r13_773_TrMRF]”, the “folding stability dG unfold” value in data set [1] was 3.71 ± 0.045 kcal/mol; in data set [2], 3.13 ± 0.076 kcal/mol; in data set [3] it was 3.56 ± 0.074 kcal/mol.
As for “SAGGLKDILKELGFPIKSVTVQPMPMPNGMPMRTVSITFENPNGPKFEIEVMVMPNGEVMIDIEWVKPSAGG [r13_818_TrROS]”, the entries for the “folding stability dG unfold” value in data set [1], in data set [2] and in data set [3] were 2.69 ± 0.11 kcal/mol, 2.23 ± 0.092 kcal/mol and 2.48 ± 0.22 kcal/mol, respectively.
As to “SAGGLKEIAKQLGPGADKVEIEWEPQPHDDMEMYRWKIRVKNPNNGKKRKLEVSIMYDPNGNIRSIMISAGG [r13_358_TrROS]”, the “folding stability dG unfold” value in data set [1] turned out to be 2.38 ± 0.077 kcal/mol; in data set [2], 1.85 ± 0.12 kcal/mol; in data set [3], 2.34 ± 0.14 kcal/mol.
The like results for “SAGGLKIVETKTEPEIGKRYVVIEVYKPETGKPILYVVPLDLEKGENSPEAVAKAILKELKLPPGVKASAGG [r13_362_TrMRF]” were, in that order, 1.71 ± 0.16 kcal/mol, 0.58 ± 0.082 kcal/mol and 1.24 ± 0.18 kcal/mol.
The like results for “SAGGLLVADEAGVPLSPVPPVPPIPVQVTFPDGTKVTIEYYPGLNEVKVEYEGDDPAKVAEIVKEILKSAGG [r13_701_JUSTAS]” were, in that order, 0.444 ± 0.11 kcal/mol, 0.146 ± 0.15 kcal/mol and 0.443 ± 0.13 kcal/mol.
For “SAGGLNIKFEILEVYPSPNGMRMIIVRMTIEYPVPVYRRDPNGEWRPMPPGQEPVTIEIDFYIMVTPSAGGS [r16_693_TrROS]”, in that order: 5.11 ± 0.13 kcal/mol, 3.67 ± 0.11 kcal/mol and 4.76 ± 0.18 kcal/mol.
Take “SAGGLPGLSAEELARRLAERLREALAAAGYTVEIELTVEITVTDEDGRTRTFTFTLRIRVEPPPPPPSAGGS [r16_550_TrROS_Hall]”: the entries for the “folding stability dG unfold” value in data set [1], in data set [2] and in data set [3] were 5.15 ± 0.074 kcal/mol, 4.05 ± 0.069 kcal/mol and 4.8 ± 0.12 kcal/mol, respectively.
For “SAGGLPPGWKPIDIMVLVPPGEPLTEDQVEELAKEIARELQEKGVTIDVRVWPTDDWYFVSVDIQVPDSAGG [r13_442_TrROS]”, in that order: 1.31 ± 0.13 kcal/mol, 2.08 ± 0.11 kcal/mol and 1.73 ± 0.18 kcal/mol.
The like results for “SAGGLRVHPNSLYIWIPPGGNFDDFVKEIAQELQKKGKPMEIKVEPFPDGWYWIRIKVDGKDIEIWMSAGGS [r16_771_TrROS]” were, in that order, 3.24 ± 0.039 kcal/mol, 2.02 ± 0.065 kcal/mol and 3.02 ± 0.1 kcal/mol.
With “SAGGLSYIELEVEFPGGGSFEEAKARAEKLAEEVRKKLGLKEVKIEIKKNPDGSYRVKITIKVPSKLSAGGS [r8_3_JUSTAS]”, the “folding stability dG unfold” value in data set [1] was determined as 3.04 ± 0.077 kcal/mol; in data set [2], 2.76 ± 0.063 kcal/mol; in data set [3], 3.02 ± 0.14 kcal/mol.
Regarding “SAGGMADEELANMSLEEVIAAVKEAGAKTVTVTFPDGSTLTIDLGDDGVVTVTLTTPPGEKETFEIPSAGGS [r8_51_TrMRF]”, the “folding stability dG unfold” value in data set [1] came out at 2.73 ± 0.088 kcal/mol; in data set [2], 2.34 ± 0.17 kcal/mol; in data set [3] it was 2.59 ± 0.11 kcal/mol.
Consider “SAGGMAVPVKVRDPVNGNWKTLDNIESIDEVVEVDPTDGSRSYFVKLKGSGKWYVVDDPEAVEAAKGSAGGS [r8_206_TrMRF]”, for which the “folding stability dG unfold” value turned out to be 1.08 ± 0.14 kcal/mol in data set [1], 1.17 ± 0.064 kcal/mol in data set [2] and 1.12 ± 0.13 kcal/mol in data set [3].
On to “SAGGMEEIEVEFEFTLPDGRTLRLTVRVRRFDGGIVVEVDVGGEEEEEREFMEEVAREIAERIAEEESAGGS [r8_416_TrMRF]”, for which the “folding stability dG unfold” value in data set [1] was 4.51 ± 0.11 kcal/mol; in data set [2], 2.92 ± 0.07 kcal/mol; in data set [3], 4.12 ± 0.093 kcal/mol.
“SAGGMEEILKKLGVKKGDKVKIKIKVEKDGKTETVEIEVPVENLEDILKKLGLSKDQVKITEIKVEKESAGG [r13_681_TrROS_Hall]”: the “folding stability dG unfold” value in data set [1] came to 3.84 ± 0.1 kcal/mol; in data set [2], 2.17 ± 0.14 kcal/mol; in data set [3], 3.4 ± 0.073 kcal/mol.
For “SAGGMEEIVKALPPEAGVVEIESEPLPLEDSILRRYRLRVYNPATGKWEELEVLIEYDKDGNIRRIVASAGG [r13_358_TrMRF]”, in that order: 3.94 ± 0.051 kcal/mol, 2.5 ± 0.043 kcal/mol and 3.6 ± 0.2 kcal/mol.
As for “SAGGMEEVIKELAKSLGVTKILPESEAKKLSSSVPNALAAVKLPDGSYVLIKRNSDGSVSSIKYKLESAGGS [r16_686_JUSTAS]”, the “folding stability dG unfold” value in data set [1] turned out to be 1.83 ± 0.087 kcal/mol; in data set [2], 1.14 ± 0.018 kcal/mol; in data set [3] it was 1.54 ± 0.1 kcal/mol.
With “SAGGMEIKVTVEKREDGYLVVTVEKAESKEEAIEAIKKELREKYPDAEITITDKDGNTIVIKLKDLKSAGGS [r8_236_TrROS_Hall]”, the “folding stability dG unfold” value in data set [1] is 2.52 ± 0.1 kcal/mol; in data set [2], 1.16 ± 0.071 kcal/mol; in data set [3], 2.06 ± 0.067 kcal/mol.
For “SAGGMEKIEIEVENEDGEKVKIEIYFDEETGFIVVKIEGENPELIDALKKKLGLEIVEKREDGYLVFKSAGG [r13_937_TrROS_Hall]”, in that order: 3.72 ± 0.13 kcal/mol, 3.01 ± 0.24 kcal/mol and 3.48 ± 0.23 kcal/mol.
For “SAGGMEKVKVRVFFIDEETGEPREVEVEATLEELRELIEKIPDKGRVLVKLELPDEERIVTLEELKERSAGG [r13_254_TrMRF]”, in that order: 3.23 ± 0.1 kcal/mol, 1.79 ± 0.065 kcal/mol and 2.76 ± 0.15 kcal/mol.
For “SAGGMELEKAIEFAKETGKEVEIEIEVEDENGKPFVIRVRVKVKPDPEDPNKYKIEVEVEVFPKEELSAGGS [r16_323_TrMRF]”, in that order: 4.38 ± 0.13 kcal/mol, 3.61 ± 0.19 kcal/mol and 4.08 ± 0.12 kcal/mol.
As to “SAGGMELLGEVTVEKPGKPITFPIYRVPDEPREVVEVRELDPSTGKWTPIGTRELPPGEAERAIEELSAGGS [r8_423_JUSTAS]”, the “folding stability dG unfold” value amounted to 0.573 ± 0.17 kcal/mol in data set [1], 0.36 ± 0.08 kcal/mol in data set [2] and 0.544 ± 0.16 kcal/mol in data set [3].
The like results for “SAGGMELPPEVKTIAEKLEAEGYDVLAVPVGDSYVIAVDGKVAATPEEFEKLKKIPGVKKLITIDLPSAGGS [r16_275_TrMRF]” were, in that order, 0.583 ± 0.049 kcal/mol, 0.432 ± 0.056 kcal/mol and 0.541 ± 0.13 kcal/mol.
For “SAGGMELTIPLPNGKLLKIKVEEVKAEPVLVEFELRDANGKLIDTIPAPSGFKISIRFSVEIYDPNEYSAGG [r13_848_TrMRF]”, in that order: 3.908 ± 0.032 kcal/mol, 2.92 ± 0.091 kcal/mol and 3.61 ± 0.077 kcal/mol.
“SAGGMEPPPMLLLVIEIENEDGEKLRIVVPLEDLEEVLKALGLSKEEVRIKKIEVVPLTDEQLKELLESAGG [r13_850_TrROS_Hall]”: the results for the “folding stability dG unfold” value in data set [1], in data set [2] and in data set [3] were 3.57 ± 0.25 kcal/mol, 3.43 ± 0.35 kcal/mol and 3.32 ± 0.28 kcal/mol, respectively.
The like results for “SAGGMETIELEIEITDEDGNTYRIRVTIERKDGKLVIKIEVEAETPEERERARELAEELARRLEEELSAGGS [r8_416_TrROS_Hall]” were, in that order, 5.3 ± 0.35 kcal/mol, 4.1 ± 0.19 kcal/mol and 4.94 ± 0.6 kcal/mol.
With “SAGGMEVTFPVSPDLSPEEVRARIEAEIRPIAEARGAVDVEVPIVEYRRLPPDSVEFRFKVTVRFPRSAGGS [r8_184_JUSTAS]”, the “folding stability dG unfold” value in data set [1] was determined as 2.4 ± 0.052 kcal/mol; in data set [2], 1.94 ± 0.089 kcal/mol; in data set [3], 2.33 ± 0.11 kcal/mol.
For “SAGGMEVVFVVGSPEVAEAFREKHPDLPFVPVSLEDYRNPAPFEAAVAAVEARGHAVRVITVPDDPESAGGS [r8_376_JUSTAS]”, in that order: 1.12 ± 0.05 kcal/mol, 0.0526 ± 0.14 kcal/mol and 0.796 ± 0.064 kcal/mol.
The like results for “SAGGMFKGPDGNWKTYKTTKPGLTKSDIGPFVEELVEKFLKDHGLNPENVSAKAEYNPSTGTVNVYVGSAGG [r13_913_TrMRF]” were, in that order, 0.783 ± 0.083 kcal/mol, 0.041 ± 0.039 kcal/mol and 0.576 ± 0.08 kcal/mol.
The like results for “SAGGMFLRIEPEDGSRFEIPLNDPSLPLEVVVGLVSKYMDGPVKLKLTLVLPEEEVEYEYEIPLEKKSAGGS [r16_216_TrMRF]” were, in that order, 2.37 ± 0.061 kcal/mol, 1.24 ± 0.028 kcal/mol and 1.98 ± 0.098 kcal/mol.
Take “SAGGMGLEELAKLSPEEIARRLAAEAKAAAAAAGTPDAAVTLEVTLEDKPIVVEVGADGTIRRVELGSAGGS [r16_431_JUSTAS]”: the “folding stability dG unfold” value in data set [1] worked out at 1.16 ± 0.024 kcal/mol; in data set [2] it was 0.442 ± 0.1 kcal/mol; in data set [3], 0.922 ± 0.063 kcal/mol.
The like results for “SAGGMGSEKLPLTLTLPGDRKLEVTVYRVGDKLYVEIKLTHGSKPLGTLTVEADSLDEVLDAAKEAASAGGS [r16_55_TrMRF]” were, in that order, 3.58 ± 0.062 kcal/mol, 2.77 ± 0.15 kcal/mol and 3.28 ± 0.15 kcal/mol.
